Experimental data from USRE39192E1, “Supplemented and unsupplemented tissue sealants, methods of their production and use” (American National Red Cross, priority 1990, dated 2006).
Counter-ions that a name gives are not always drawn.

B1: FGF-4: recombinant fibroblast growth factor-4 (protein, UniProt P08620 31-206, looked up)
Fibroblast growth factor 4: APTAPNGTLEAELERRWESLVALSLARLPVAAQPKEAAVQSGAGDYLLGIKRLRRLYCNVGIGFHLQALPDGRIGGAHADTRDSLLELSPVERGVVSIFGVASRFFVAMSSKGKLYGSPFFTDECTFKEILLPNNYNAYESYKYPGMFIALSKNGKTKKGNRVSPTMKVTHFLPRL

Columns and labels:
E. coli = experiment: Antimicrobial activity of AB released from AB-FG (zone of inhibition); format: cell-based; conditions: eluates on agar plates, 18 hours at 37° C.
Description: FIG. 27. […] Then the diameter of the zone of inhibition was measured.
In order to measure the concentration and biological activity of the TFT which had been released from the TFT-FG disks, the eluted TFT was thawed and was analyzed spectrophotometrically at 320 nm and/or biologically by the inhibition of E. coli grown on agar plates.
The antimicrobial activity of the AB released from the AB-FG was estimated by measuring the diameters of the zones of inhibition generated by the eluate from the 6 mm diameter disks form the daily collected PBS or saliva surrounding the AB-FG. The eluates from unsupplemented FG served as controls. AB solutions of knwon concentration were used as standards. […] To make the culture plates, 100 μl of the bacterial cell suspension, containing approximately 10^8 cells/ml, was mixed with 3 ml of top agar at 50° C. and immediately poured onto the plate hard, bottom agar to make a uniform layer of cells. The plates were incubated at 37° C. for 18 hours.

[1] = system: human dermal fibroblasts (HDFs); experiment: Cell chemotaxis assay (modified Boyden's chamber), human dermal fibroblasts; format: cell-based
Description: (§1) NIH/3T3 fibroblasts at passage 126 were purchased from the American Type Culture Collection, Rockville, Md. Cultures from passages 129-133 were used in the chemotaxis assays. Cultures were propagated in DMEM supplemented with 10%. Calf serum and approximately 1% antibiotic antimycotic solution. Human dermal fibroblasts (HDFs) were purchased from Clonetics, Inc. (San Diego, Calif.) at passage 2. Cultures from passages 3-5 were used in the chemotaxis assays. Cultures were cultivated in DMEM supplemented with 20% FBS (Hyclone Laboratories, Inc., Logan, Utah) and approximately 1% antibiotic antimycotic solution (Gibco, Grand Island, N.Y.).
(§2) The procedure used to determine cellular chemotaxis was a combination of two known methodologies. A modification of Boyden's chamber was used as follows: Millicell-PCF (Millipore, Inc., Bedford, Mass.) (12.0 μm) 12.0 mm diameter inserts were placed in individual wells of 24 well plates to create the upper and lower chemotaxis chambers. Chemotaxis results were arrived at by performing checkerboard analysis for every combination of cells and growth factors. Concentrations ranging from 0.1, 1, 10, 100 ng/ml with/without added heparin (10 U/ml) were used for FGF-1, FGF-2 (no heparin) and FGF-4 with all the cell types mentioned in the materials section. Briefly, cultures were trypsanized and placed in DMEM+0.1% Bovine Serum Albumin (BSA) (Sigma Chemical Co., St. Louis, Mo.) for approximately one hour at 37° C. in a 5% CO2 humidified chamber. Tow to 2.5×10^5 cells in 50 μl were added per insert to the upper chamber of the setup of the 24 well plates. Treatments were added as mentioned above. The assay was kept at 37° C. in a 5% CO2 humidified chamber for 4 hours. All combinations tested were performed in triplicate. At the end of 4 hours, the plates were removed from the incubator and the filters were stained following the protocol for staining included with the Millicell-PCT inserts. Briefly, the fluid surrounding the inside and outside of the Millicell-PCF inserts were removed. Three percent glutaraldehyde (Sigma Chemical Co., St. Louis, Mo.) was added to the outside and inside of the inserts for approximately 20 minutes. Following removal of the 3.0% glutaraldehyde, 0.5% Triton X-100 (E.M. Science, Cherry Hill, N.J.) was added for 5-7 minutes. On removal of the 0.5% Triton X-100, Fisher's Hematoxylin Solution Gill's Formulation (Fisher Scientific, Newark, Del.) No.1 was added for about 10 minutes. This solution was washed off in running distilled water for about 5 minutes. Using a cotton swab the upper side of the filter was swabbed to remove cells which had not migrated. Filters, were mounted lower side facing up on slides in Crystal Mount™ (Biomedia, Inc., Foster City, Calif.) solution and 10 random field were counted per slide both visually at 400× and at 200×using an Image Analyzing System to automate the enumeration of the cells on the underside of the filters.
(§3) As required, checkerboard analysis was carried out to determine random migration, and positive and negative chemotaxis. Growth factors were added to the upper and/or lower chambers to observe whether cells migrated towards the GF alone (chemotaxis), whether migration was random irrespective of whether the growth factor was added to the upper or lower well (chemokinesis) or whether cell migration was against the chemotactic gradient (negative chemotaxis).

[2] = system: human dermal fibroblasts (HDFs); experiment: Cell migration assay to FGF released from FG; format: cell-based; conditions: 24 hours
Description: FIG. 41. Graph showing the dose-response relationship of the chemotactic response of HDFs to FGF-4 in solution and in FG. FGF-4 was incorporated into FG and placed in the bottom well of chemotaxis chambers. The amount of FGF in the FG was sufficient to result in the indicated concentrations when evenly distributed throughout the FG and medium in the lower chamber. Negative controls included medium alone and FG without FGF. Medium containing FGF-4 at a concentration of […] in the lower chamber was utilized as a positive control.
Chemotaxis chambers and cells were utilized as described above. Fifty μl of 8 mg/ml Topical Fibrinogen Complex (TFC, American Red Cross, Rockville, Md.) was added to the bottom of 24 well plates. Forty μl of test growth factor+/−heparin at a final concentration of 10 U/ml (FGF-1, FGF-4 with heparin, FGF-2 alone) was added to the TFC and thoroughly mixed. Ten μl of bovine Thrombin (Armour Pharmaceutical Company, Kankakee, Ill.) was added and mixed thoroughly. The components were allowed to gel at room temperature for approximately 30 minutes. Total volume in the lower and upper chambers was made up to 0.5 ml each with DMEM+0.1% BSA. The concentration of the FGF's added to the TFC was adjusted to produce the desired overall concentration as determined by: [formula] The assay was performed at 37° C. in a5% CO2 humidified chamber for approximately 24 hours. […]

NIH 3T3 fibroblasts = experiment: Cell chemotaxis assay (modified Boyden's chamber), NIH 3T3 fibroblasts; format: cell-based; conditions: for concentration of maximum stimulation of migration: FGF-1 in the presence of 10 U/ml heparin
Description: as §1
as §2, with “Concentrations ranging from 0.1, 1, 10, 100 ng/ml with/without added heparin (10 U/ml) were used for FGF-1, FGF-2 (no heparin) and FGF-4 with all the cell types mentioned in the materials section.” left out
as §3

[3] = Washout of 125I-HBGF-1 from FG-treated PTFE grafts in rabbit aortas; format: in vivo, New Zealand white rabbits
Description: In general, the modified F was sterilely prepared by adding approximately 1 ng/cm^2 area of the inner and outer graft surfaces of human recombinant […], 20 μg/cm^2 porcine intestinal mucosal heparin, and 2.86 mg/cm^2 fibrinogen to 2.86×10^−2 U/cm^2 reconstituted, commercially available, human thrombin (1000 U/ml) to induce polymerization.
The […] was specifically prepared as follows. Fibrinogen was reconstituted by adding 500 mg of fibrinogen into 25 ml of PBS to produce a fibrinogen concentration of 20 mg/ml of PBS. Three ml of this solution which contained 60 mg fibrinogen were placed into […] Eppendorf plastic tubes and maintained at −70° C. Each of these aliquots was used individually.
The thrombin was reconstituted by diluting a commercially available preparation thereof (Armour Pharmaceutical Co., Kankakee, Ill.) at a concentration of 1000 U/ml by a factor of 1:10 in sterile solution to produce a concentration of 100 U/ml. This thrombin solution was again diluted 1:10 to produce a solution of 10 U/ml.
The bovine heparin (Upjohn, Kalamazoo, Mich.) was reconstituted by diluting the preparation at a concentration of 1000 U/ml by a factor of 1:1000 using normal saline.
One and 48/100 (1.48) ml of the reconstituted fibrinogen, 63 μL of the reconstituted heparin, plus 15.66 μL of ^125I-HBGF-1 were mixed in a glass scintillation tube. This mixture was then aspirated into a 3 ml plastic syringe. Five ml of the reconstituted thrombin was placed into a glass scintillation tube.
One end of the expanded PTFE graft was placed over a plastic-3 way stopcock nozzle and was secured there with a 2-0 silk tie. The PTFE was then encircled with a 3×3 cm square of Parafilm™ which was then crimped there with a straight hemostat to establish a watertight seal. A second 2-0 silk tie was positioned over the parafilm adjacent to the stopcock to form another seal. A straight hemostat was then used to clamp the distal 2 mm of the PTFE/parafilm to seal this end.
Equal volumes of fibrinogen and thrombin solution prepared as described above were mixed and allowed to react for approximately 30 seconds which is when polymerization occurs. The thrombin-polymerized fibrin is then opaque. (This time factor is approximate and varies from one thrombin lot to another. The appropriate length of time to polymerization can be determined by viewing the opacity of the mixture). The fibrin/thrombin mixture was aspirated into a one cc syringe. (NOTE: The volume of this graft was 0.42 ml. For a graft with a larger volume one needs to use a larger syringe). […] The treated graft was then ready for implantation. […]

Row | Molecule | antimicrobial activity of released AB (E. coli) | checkerboard analysis [1] | concentration of maximum stimulation of migration [1] [mg/mL] | maximal migratory response over negative control [1] [fold] | checkerboard analysis (NIH 3T3 fibroblasts) | concentration of maximum stimulation of migration (NIH 3T3 fibroblasts) [ng/mL] | also measured
1 | O=C(O)c1cn(C2CC2)c2cc(N3CCNCC3)c(F)cc2c1=O [CIP, Ciprofloxacin HCl] | parallels the profiles determined spectrophotometrically |  |  |  |  |  | 
2 | Cc1ncc([N+](=O)[O-])n1CCO [MET, Metronidazole] | parallels the profiles determined spectrophotometrically |  |  |  |  |  | 
3 | FGF-2: recombinant fibroblast growth factor-2 |  | chemotactic | 10 | 12 | chemotactic | 1 | concentration in FG eliciting peak chemotactic response [2]: 0.01 mg/mL
4 | ^125I-HBGF-1: radiolabelled human recombinant HBGF-1 in FG applied to PTFE grafts |  |  |  |  |  |  | remaining 125I-HBGF-1, percentage of the zero time value ([3]; after 1 week): 13.44%±6.9%; washout of 125I-HBGF-1 ([3]; after 1 hr): −0.03 %/min; remaining 125I-HBGF-1, percentage of the zero time value ([3]; after 30 days): 3.8%±1.1%; washout of 125I-HBGF-1 ([3]; between 5 and 60 minutes): −24.1 %/min
5 | B1 |  | chemotactic | 10 | 10 | chemotactic | 10 | incorporated and total concentration in FG eliciting maximal migratory response [2]: 1 ng/mL
